{"source": "paper PMC4789653", "about": "“Atomic visualization of a flipped-back conformation of bisected glycans bound to specific lectins” (Scientific Reports, 2016)", "proteins": {"B1": {"name": "phytohemagglutinin from Phaseolus vulgaris (PHA-E) (natural protein, UniProt P05088 22-275, looked up)", "chain": "ASQTSFSFQRFNETNLILQRDATVSSKGQLRLTNVNDNGEPTLSSLGRAFYSAPIQIWDNTTGAVAASPTSFTFNIDVPNNSGPADGLAFVLLPVGSQPKDKGGLLGLFNNYKYDSNAHTVAVEFDTLYNVHWDPKPRHIGIDVNSIKSIKTTTWDFVKGENAEVLITYDSSTKLLVASLVYPSLKTSFIVSDTVDLKSVLPEWVIVGFTATTGITKGNVETNDILSWSFASKLSDGTTSEALNLANFALNQIL", "notes": "erythroagglutinating phytohemagglutinin (PHA-E), legume lectin from Phaseolus vulgaris; 120 kDa as tetramer; Crystallised with bisected glycan 2; eight subunits in the asymmetric unit; also called E4-PHA; PHA-E lectin; source: purified from Phaseolus vulgaris; bought: J-Oil Mills"}}, "target": "the molecule itself", "test": "crystal structure; PHA-E (9 mg/ml, 20 mM Tris-HCl pH 8.0, 100 mM NaCl) with 0.6 mM bisected glycan 2; crystals from 0.1 M sodium acetate pH 4.5, 25% PEG3,350, 20 °C; 3.0 Å"}
{"protein": "B1", "values": [{"measurement": "stoichiometry N", "result": 4}]}
